What all share (settings): both partners purified
Test [1] deals with T1, Nsa2 on the pre-60S particle (S. cerevisiae (endogenous in the yeast …, UniProt P40078 1-261)).
T1 construct: Nsa2 of S. cerevisiae; only His20 to Lys74 seen as density; source: endogenous, on pre-60S particles purified via Bud20-TAP from S. cerevisiae
T1 sequence (looked up): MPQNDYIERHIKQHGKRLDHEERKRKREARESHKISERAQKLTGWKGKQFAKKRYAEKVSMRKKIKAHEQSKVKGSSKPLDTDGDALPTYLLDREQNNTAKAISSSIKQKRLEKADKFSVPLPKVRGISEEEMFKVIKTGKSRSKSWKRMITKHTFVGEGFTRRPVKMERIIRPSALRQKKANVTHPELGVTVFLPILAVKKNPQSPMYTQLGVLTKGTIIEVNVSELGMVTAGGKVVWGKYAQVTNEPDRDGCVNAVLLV
Put plainly: cryo-EM structure; purified Drg1 (1.75 mg/ml, 12 µM) mixed 1:1 with 200 nM export-competent Bud20-TAP pre-60S particles, 2 mM ATPγS, 10 minutes; particle-bound Drg1 and free Drg1 hexamers picked from the same dataset.

Test [2] deals with T2, Drg1EQ1 (E346Q), D1 Walker B variant, purified (S. cerevisiae, UniProt P32794 1-780, E346Q).
T2 construct: Drg1 (AFG2) of S. cerevisiae with the D1 Walker B exchange E346Q; source: overexpressed in yeast as GST fusion, purified on GSH-agarose, eluted by Prescission protease cleavage
T2 sequence: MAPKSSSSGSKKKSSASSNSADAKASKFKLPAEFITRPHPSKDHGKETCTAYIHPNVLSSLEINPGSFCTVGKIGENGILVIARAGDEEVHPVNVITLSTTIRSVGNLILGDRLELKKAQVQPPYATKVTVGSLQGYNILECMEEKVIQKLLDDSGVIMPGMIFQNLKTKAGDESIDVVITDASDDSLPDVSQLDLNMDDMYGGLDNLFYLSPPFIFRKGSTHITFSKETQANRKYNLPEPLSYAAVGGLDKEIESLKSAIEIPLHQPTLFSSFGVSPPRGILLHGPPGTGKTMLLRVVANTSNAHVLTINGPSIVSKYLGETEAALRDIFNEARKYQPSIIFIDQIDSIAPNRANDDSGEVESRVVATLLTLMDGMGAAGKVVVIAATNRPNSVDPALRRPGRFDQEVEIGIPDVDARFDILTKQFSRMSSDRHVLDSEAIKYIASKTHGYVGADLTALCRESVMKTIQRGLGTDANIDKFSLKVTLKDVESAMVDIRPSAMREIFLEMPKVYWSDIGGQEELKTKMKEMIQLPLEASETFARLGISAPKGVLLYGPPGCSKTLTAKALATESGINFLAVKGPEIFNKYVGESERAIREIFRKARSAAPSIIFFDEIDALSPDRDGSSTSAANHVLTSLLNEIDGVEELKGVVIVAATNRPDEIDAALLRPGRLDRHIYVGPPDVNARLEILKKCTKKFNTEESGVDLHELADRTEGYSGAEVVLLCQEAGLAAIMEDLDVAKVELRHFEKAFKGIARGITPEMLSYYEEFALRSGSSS
Put plainly: pull-down; GST-tagged bait on GSH-agarose beads; 80 µg Drg1 in 120 µl binding buffer (20 mM HEPES-KOH, 150 mM potassium acetate, 5 mM magnesium acetate, 0.1% Tween-20, 1 mM DTT, pH 6.8); 1 mM ATP or ATPγS or no nucleotide; 60 minutes, room temperature.

For test [3], the target named is T3, Drg1 (diazaborine resistance gene 1), wild type, purified (S. cerevisiae, UniProt P32794 1-780).
T3 construct: Drg1 (AFG2), hexameric type-II AAA-ATPase of S. cerevisiae, wild type; Hexamer in the cryo-EM maps; also called DRG1 (AFG2); AAA-ATPase Drg1; source: overexpressed in yeast as GST fusion (CuSO4-induced), purified on GSH-agarose, eluted by Prescission protease cleavage
T3 sequence: T2 sequence with Q346E
The test is described as above.

This note sets out measurements from PMC9507969, “Visualizing maturation factor extraction from the nascent ribosome by the AAA-ATPase Drg1” (Nature Structural & Molecular Biology, 2022).

Residue numbers refer to the chain shown, from its start.

B1: Mrt4 on the pre-60S particle (natural protein, UniProt P33201 1-236, looked up)
chain: MPRSKRSKLVTLAQTDKKGRENKERIFDEVREALDTYRYVWVLHLDDVRTPVLQEIRTSWAGSKLIMGKRKVLQKALGEKREEEYKENLYQLSKLCSGVTGLLFTDEDVNTVKEYFKSYVRSDYSRPNTKAPLTFTIPEGIVYSRGGQIPAEEDVPMIHSLEPTMRNKFEIPTKIKAGKITIDSPYLVCTEGEKLDVRQALILKQFGIAASEFKVKVSAYYDNDSSTVESTNINME
notes: Mrt4 of S. cerevisiae; source: endogenous, on pre-60S particles purified via Bud20-TAP from S. cerevisiae
For the molecule B1, the binding result in test [1] is listed as “binds”.

B2: GST-Arx1 (natural protein, S. cerevisiae)
chain: MALAISHEDTQILLKDKNILQESVLNKYRTAGQIAQTALKYVTSLINDSYHSKTTQRQLTVPELCLLTDSFILTRLEQYYKNKVNERGIAIPTTIDIDQISGGWCPEIDDTQNLLNWNKGKDSTFASSVTGTLRPGDLVKITLGVHIDGYTSEVSHTMVIYPVDETKPILQPTGPLLGGKADAVAAAHIAMETVVALLACALTPEKLPASLGGTSSGITGQLIRTIVDTIARSYNCGVVPGSRVRRIRRFLAGQNEGIVAEREYKGVVWTESHQEADLLSNTDAKDLTVVDRGQSTPFTNVSAIPSDDFVVQSGEVYLIDLKMASLEHCTKKGLVTLETVDSYTGKSHKAGELIARPGAYVRDFAQTHILKLKTSRQLLTKIDKQGVYPFKLSHLSSNFPFVHENEEELQSLKKDLKSFRLGMSEISNNYLCVESPIQIARWVPWDHILKATNPNGNLSYDATSTLTLPGHELPLPKLGVSAIKLKSLMNSTKESISLPVARECNTIVLCDSSVSTTDRPELLRLTGGSKTCQPSWIHSQHELNPQDSIVQGIFQLATLAKDKRFGLLLKETQPMKQKSVETSNGGVEETMKM
notes: Arx1 of S. cerevisiae; not shown: GST, N-terminal, kept
Take B2: the binding result in test [2] and in test [3] was “binds” in each case.
